From the DeepSol protein solubility set

test: soluble on expression in E. coli; label from the status in PepcDB or PDB records

Sequence	soluble on expression in E. coli
MGSDKIHHHHHHMNFQIVINNIQHIGYAELDVDLNASGIICIVGKNGVGKTTLIKAILNLKSADTFSRTASPGIFKANSSMRCTYGENSYEFSFDSDINDLNSRSPIPEELKSVIDVELPMPFGQRFNNYQNIMSADMDIRTALILGEYEVPVELISFLSDIYKTNKFNGLVEVSAKGGSYYCIPLDDDRYVREDHLSSGEFFLISLYRKIKGRSKFIVIDEIDISLDAAAQAHLIGWLRRFCTTEQVKVVFTTHSLALMRTLKDGELFYMEESEGKVSVIPSSYNYIKSVLFGFKGWDRYILTEDAMLKSLLEYVLANYCSGLFFSYQIIHVGGGSNVVDLMRQNSTEGFFSTPENVISVLDGDQAEYRYARRPNVYCIPFLSVEKAIFAEYKAGRFLPELAPDPRFDTPKNFCSAIGRDRHATEADIIKYLCDSYPTEVRRFAQTLSDFLS	not soluble
MGSDKIHHHHHHQTKAEKNGWRLGMQSYSFHLFPLTEALDKTQELGLKYIEIYPGHKLGGKWGDKVFDFNLDAQTQKEIKELAASKGIKIVGTGVYVAEKSSDWEKMFKFAKAMDLEFITCEPALSDWDLVEKLSKQYNIKISVHNHPQPSDYWKPENLLKAISGRSQSLGSCSDVGHWRREGLNQIDCLKQLKGRIISLHFKDIAPKKAGENEQHDVIWGTGILDVKGMLKELKSQNFKGVFSIEYEYNWENSVPDIKECIQYFNKTANEIL	not soluble
MKKNMLRIMATVTIMGGLFVSTNVPNVKAEEYPEMIVFDDVPVNHWAYDDIMDVVYNKVMLGYGNGKFGVGDNVTREQVAAVLYRTLNLKKEGPLKNPYKDISERATFFLDEILVLTKHGIFEGDEKGNFRPAAPVTRAETAQILTKAFTFEVKKNHTFKDVPNNHWAKNAISALQSNHVIVGTGNGKFEPNKVVTREQYATFLNKAVFYFPVKDENYE	not soluble
MALTDRLLDAWYKGHPALTLLRPLESLYRRVVDGKRAKFLAGEGDIYRAPVPVIVVGNITIGGTGKTPLILWMIEHCQRKGLRVGVVSRGYGAKPPSLPWRVQPDQSASEAGDEPLLIVQRSGVPLMIDPDRSRAVQALLAAEPLDLILSDDGLQHYRLARDLELVLIDAARGLGNRRCLPAGPLREPVERLSSVDALLYNGATADRDDGYAFTLKPSALINLRSGERQPVSYFPAGQALHAVAGIGNPQRFFNTLEGLHWRPVTHAFADHALYSVQALTFTPALPLVMTEKDAVKCRAFAADDWWYLAVDAVPSDAFVGWFDEQLLRLSPLEHHHHHH	not soluble
MKSKYEPLFDKVELPNGVELRNRFVLAPLTHISSNDDGTISDVELPYIEKRSQDVGITINAASNVSDVGKAFPGQPSIAHDSNIEGLKRLATAMKKNGAKALVQIHHGGAQALPELTPDGDVVAPSPISLKSFGQKQEHSAREMTNEEIEQAIKDFGEATRRAIEAGFDGVEIHGANHYLIHQFVSPYYNRRNDVWANQYKFPVAVIEEVLKAKEAYGNKDFIVGYRLSPEEAESPGITMEITEELVNKISHMPIDYIHVSMMDTHATTREGKYAGQERLPLIHKWINGRMPLIGIGSIFTADEALDAVENVGVDLVAIGRELLLDYQFVEKIKDGREDEIINYFDPEREDNHHLTPNLWHQFNEGFYPLPRKDK	not soluble
MHLYYLGPKGTFSYLAAKQFESHEQYDFIPLSNLHEVIQSVSKDKQAVGIVPIENSIEGTINIVADSLAHHDVYAHGEIQLDIDFSLYGHHSNSLDDIHKVYSIAPAISQTINYIHRQQFDYDYVDSTIQSLNMIKDGIGAIAPLGSGETYGYHTLDQHIQDYPHNVTRFLVVKNHTHFIEHPNTTIFLITPKYDKPGLLASVLNTFTLFNINLSWIESRPLKTQLGMYHFYVQADTAINNDVNKIISILETLDFQVKIIGAFNKKN	not soluble
MTRRPDRKDVATVDELHASATKLVGLDDFGTDDDNYREALGVLLDAYQGEAGLTVLGSKMNRFFLRGALVARLLSQSAWKQYPEHVDVAIKRPIFVTGLVRTGTTALHRLLGADPAHQGLHMWLAEYPQPRPPRETWESNPLYRQLDADFTQHHAENPGYTGLHFMAAYELEECWQLLRQSLHSVSYEALAHVPSYADWLSRQDWTPSYCRHRRNLQLIGLNDAEKRWVLKNPSHLFALDALMATYPDALVVQTHRPVETIMASMCSLAQHTTEGWSTKFVGAQIGADAMDTWSRGLERFNAARAKYDSAQFYDVDYHDLIADPLGTVADIYRHFGLTLSDEARQAMTTVHAESQSGARAPKHSYSLADYGLTVEMVKERFAGL	soluble
MAPPSDSDPREPSPPLFQGRGLTKRFGSFVANQAIDLDIAGGEVHALLGENGAGKSTLVKLITGLLQPDDGRMIWRGTPISFAGPAEARACGIAAVSQHFALFDNLTVVENVALGLDRRISVGRLATELEQISQRYGLPLDPKREVWRLSVGERQRIEIVRALLQNPQLLILDEPTAVLTPAEADRLFDVLQRLRADGRALLYISHKLDEVKRLASVATILRAGRVVGSCDPRQESAASMARMMVGSDVTAPKQSSHSIGGPLLSVSGLTQRPDDPHGVTLRDIALEVRSGEIVGIAGVAGNGQDELFAALSGETPIAQSDVIHIAGEAAGSLSINQRRRLGAAFVPEQRLGHATVPTMSLSDNALLTGHATGALVKFGLVNRGAALALVDRVSEAFDVRKASRDPEAARLSGGNLQKFIVGREILRQPRLLIVDQPSWGLDAGAASAIRQALLDLAASGAAVLVISQDLDELIEIADRIAVMFHGRLSPPRPVSEIGRDQLGLLMGGSGWPAEVRDVAGALEHHHHHH	not soluble
MGSDKIHHHHHHMINAPKTCTCYNGCVGGPSRPAGHPRRRTDKPRWRWTFDSGRRTPSVRIRQLVRGTVPWESLEAVARELGARYDQDTVRVVFLDADNWLSTPCVVNDRWFVKVISEQNALVHAVFTGARNLGMFSSGTEGFFERFDGPVAMAEHERDATRDLRALGVNAPRPIEAFEVDGFGVLVLDYLPAFTPLDEVPAADVAAHAPAVFEALSTMHANGVAHGDLRAENVLVSDGDLYFIDATNVDTDAIADARAYDLACALAALEPLIDAQTVVRIARESYTVDEAAADVSTTMDALLRAQDFLGFVQLRPDHDFDTAALTGHIGMAATNAQRGL	not soluble
MRESPYRILEEALRPHLGARAQVVLEEGLKRLGKRPEELSEKDAETLLKGLIFRELQARLPAAQARRAVEEALARLAPAPEGGLEALERGLARFGLYVDWPEVGRLRALVNRLRREPDPRLLQEGLALLDHLEEKLEEALLRQAQDLAHLEEALERVRPLGGPKVRRLESLIQIVREAHREGTLAQGEVERARGPGPEAPQVPGLQSRPARHPPRDGL	soluble
MPSSVELSVQAGLEHFDAAQWDALAGPQPFVRHAFLRALHDTGCASPGTGWTPCFLALRRAGLLAGAVPLYAKSHSRGEYVFDYAWADAYARNGLPYYPKLLSAVPFTPVGGARLLAHTHADRLLLARGLIQLARQFEVSSLHVLFPSDDDLLALREAGYLIRAGVQFHWRNAGYAGFDDFLAAFSHDKRKKIRQDRKKVAAERVSFRWLRGADIDAAALDFFYQCYRHTYLAHGNPPYLNLEFFRQLHAEMPDALVLILAEQDGQPVAAALNLQADGVLYGRYWGARRYIPGLHFETCYLQSIEYCIAHGQASFEGGAQGEHKMARGLLPTPTWSAHWIADTRFAAAIDDFLGHETHAIDEYRDELATHSPFRKT	not soluble
SLEQENMEQRVKHESEELLQKFKSTSNLDELIESLGGLGEEAQREAGESLEALKRPVKEMMNDENNHLPQKLHQLKEVVSQLEPDHLKQGAVKKFVNKILGRSPMEQYAQRYKTVEAQVENIIEALLTGKDKLQEDTLMLTQLKGVARERISHLEEQIEMGKQLNAMLESEMTSEEWKNNPTALKKGQQKVISRIKNMSQAIMVLQQSLASVDLIVENNEKLEEAIFNAITMTKNIITVTASIQLALGNQKKVINAVQNVNEATENMLLSNAEMLKKNTEDTLKTLEEPAIAIESFRKAYQDVFAAIELTEQSNERIVSSGKKFIAELDTLNKEMKTKLIESKSTSSS	soluble
SLIDMGDYTLKELETWNEKIEGIVNEMGLNYYNQEFEIISYNGMLEAEAYTGMPSRYPHWSYGKAYEKQKTLYGYDLVGLPYEMVINSNPCIAYLMKENTLLLQILTMAHVYGHNDFFKNNRLFREGTDASETVNMFKNDADTIRNYIDNPAIGNEKVEKILDAAHAIRYQTHRVIGEKRLSYEEIRNKIIQDYNSSYKPRSIIEPYEKPVEPDLSKIPLEPEDDIIYFIENYGNLQEWERNVIEIVRRETAYFIPQIETKIMNEGWASFWHYTILNELKLPDGLHLEFLKRHNDVLSPILGSLNPYYLGFKILKDIEDRYGRDKIFEVREIERDESFIRKYLTRELCEELNLFEFSKRRGEYIIDNVADEEGWKNIRNSICSGCGMNSIPVIRVVELSKKDNNLILEHLYDGRELNMQYAEETLKYVVNLWKGKVTLKTTIEGKEYRIVCDENKKICEVK	soluble
MGSDKIHHHHHHMDKSIKSNAEKFIMIYNEIDRYMRKVLDENERTGNADLVKKMAKRNKVFEEYKDELMLFARLRNSIVHNPYNAELDPIAEPHDKIIVKYGELRDKILNPPLALDTIAVKGKNIYVVTQNESVLDVMTVMKDNNYANVPVVDNLGMIVGVFSKNTVFSYMVENEGVQIRRDTKINDFKEFIPLHKHENEFFAFVSRKTLAVEIEDMFKKRIHGKKKLSLVFITETGRVKEKILGIVTPWDIAIN	not soluble
MPRWRSAVEGLMLNRVVEQLTAQLPARNLGWVFPDETTAALLLDGPDGQPLGNLVLGYRPPQPVLFLSRERLRGDPHNPFQRLLATRVRGELLKIEQFKLDRVVALHFGPAEGFIDQPPARLLFEVTGRNANLLVMEEGEGFAGRITLAAREITGSRNRFRTIRSGGPYTPPPPYDKFDPRTMTPADAQTLAGVPLSEWRGRVDGLGPMLSAELARRAEMRPSQAPGDDWERAYDALKSLVADPSVSEGTLSEGAREAARQEKAGALRKLLREPLEKRVTLLENQLGDVTRAEEGVEIAAQDRAEADLLMAYAQTVEPGAASALLPSFDGEGEVPVSLEPQLSAVQNAEKRYARARRRDEVYLRLAEREGSIRSELEAARERLHRLDHAELEQLEQLASDLEREKPERS	not soluble
MLISERFGIKGRADAVRRGMPVELKTGKNLKRSPRFQDKVQAACYGLLLADDIADPPDTGTLLYTKNSALDRSEESGDLSPAKEFSIGPGFLKYVLRVRNEIAAAEYDMSVPTGFEADANCDYCFEQDTCMVVSGRLDQESKAGQLGEPLPEPERAYFERLYRAIEEERREVHAEYRKLWEQSAAERADDDRALVDLDPLGREPLDGGRWALSARRTSDAVSKIREGDRVLASDGHPTQGTAELATVRHLDDEIVVVADEPFELRRIDVYPSELGVDRQLEHHHHHH	soluble
MGSDKIHHHHHHRECVQTSLSWRNDTTGIWETAGWWNSANVLTATIRYGAVTKDPAIPSVIEDVFEKARHYQVGVDSTGTPRYCDNFINDYYDDEGWWALAWIEASKLTGEKKYLDMAEIIFDDMTTGWSDACGGGIFWKKNPLHYKNSIANNLFSLTAIRLYKATQNPAYLDWFKKNVDWYMRTGMINTNIYQIEDGTKDDCTPNRNAHYTYNQGVAIAVLAEMYLQTNDKSYLELAEKIADATITTQLITDEGILREMKPEIDDSNDGVQFKGIFIRHLAFLYEVTKNPAYKDFILKNAESIITKDYDPTSKSFGCYWYGPFHKENSAANACALECVIEAYDLTK	not soluble
